# B1: Protein PTHB1 (Homo sapiens), Q3SYG4 (parent)
# chain: MSLFKARDWWSTILGDKEEFDQGCLCLANVDNSGNGQDKIIVGSFMGYLRIFSPHPAKTGDGAQAEDLLLEVDLRDPVLQVEVGKFVSGTEMLHLAVLHSRKLCVYSVSGTLGNVEHGNQCQMKLMYEHNLQRTACNMTYGSFGGVKGRDLICIQSMDGMLMVFEQESYAFGRFLPGFLLPGPLAYSSRTDSFLTVSSCQQVESYKYQVLAFATDADKRQETEQQKLGSGKRLVVDWTLNIGEQALDICIVSFNQSASSVFVLGERNFFCLKDNGQIRFMKKLDWSPSCFLPYCSVSEGTINTLIGNHNNMLHIYQDVTLKWATQLPHIPVAVRVGCLHDLKGVIVTLSDDGHLQCSYLGTDPSLFQAPNVQSRELNYDELDVEMKELQKIIKDVNKSQGVWPMTEREDDLNVSVVVSPNFDSVSQATDVEVGTDLVPSVTVKVTLQNRVILQKAKLSVYVQPPLELTCDQFTFEFMTPDLTRTVSFSVYLKRSYTPSELEGNAVVSYSRPTDRNPDGIPRVIQCKFRLPLKLICLPGQPSKTASHKITIDTNKSPVSLLSLFPGFASQSDDDQVNVMGFHFLGGARITVLASKTSQRYRIQSEQFEDLWLITNELILRLQEYFEKQGVKDFACSFSGSIPLQEYFELIDHHFELRINGEKLEELLSERAVQFRAIQRRLLARFKDKTPAPLQHLDTLLDGTYKQVIALADAVEENQGNLFQSFTRLKSATHLVILLIALWQKLSADQVAILEAAFLPLQEDTQELGWEETVDAAISHLLKTCLSKSSKEQALNLNSQLNIPKDTSQLKKHITLLCDRLSKGGRLCLSTDAAAPQTMVMPGGCTTIPESDLEERSVEQDSTELFTNHRHLTAETPRPEVSPLQGVSE
# partner: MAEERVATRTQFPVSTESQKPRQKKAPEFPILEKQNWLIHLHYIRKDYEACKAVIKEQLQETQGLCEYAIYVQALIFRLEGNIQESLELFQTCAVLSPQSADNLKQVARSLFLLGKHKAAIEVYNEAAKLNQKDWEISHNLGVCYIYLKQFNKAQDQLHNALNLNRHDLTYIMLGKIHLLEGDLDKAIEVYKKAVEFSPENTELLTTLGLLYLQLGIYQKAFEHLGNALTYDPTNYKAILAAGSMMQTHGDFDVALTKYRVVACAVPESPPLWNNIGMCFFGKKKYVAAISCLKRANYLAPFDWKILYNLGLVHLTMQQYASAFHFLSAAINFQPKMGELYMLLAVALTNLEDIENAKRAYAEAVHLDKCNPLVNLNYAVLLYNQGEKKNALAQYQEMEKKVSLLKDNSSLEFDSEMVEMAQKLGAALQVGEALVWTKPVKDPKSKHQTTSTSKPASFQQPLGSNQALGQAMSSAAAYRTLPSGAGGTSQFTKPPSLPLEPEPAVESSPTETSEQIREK
# Variants of: B1
# Conditions: with bbs4_human BBS4, Q96RK4
row,Variant,effect of a mutation on the interaction
1,L793K,with no effect
2,L793A,with no effect
3,L793E,with no effect
4,N794A,with no effect
5,N794K,with no effect
6,N794E,with no effect
7,V772E,disrupting interaction strength
8,V772K,disrupting interaction strength
9,V772A,with no effect
10,K786A,with no effect
11,K786E,with no effect
12,C783E,with no effect
13,C783A,with no effect
14,C783K,with no effect
15,L766K,with no effect
16,L766C,disrupting interaction strength
17,L766A,with no effect
18,L766E,with no effect
19,A792E,with no effect
20,A792K,with no effect
21,N796K,with no effect
22,N796A,with no effect
23,N796E,with no effect

row,Variant,effect of a mutation on the interaction
1,S787E,with no effect
2,S787K,with no effect
3,S787A,with no effect
4,E770K,with no effect
5,E770A,disrupting interaction strength
6,A775E,with no effect
7,A775K,with no effect
8,L784K,with no effect
9,L784A,with no effect
10,L784E,with no effect
11,E765K,with no effect
12,Q798A,with no effect
13,T782E,with no effect
14,T782A,with no effect
15,T782K,with no effect
16,W768K,with no effect
17,W768E,with no effect
18,W768A,with no effect
19,L779A,with no effect
20,L779K,with no effect
21,L779E,with no effect
22,D773E,with no effect
23,D773A,with no effect

row,Variant,effect of a mutation on the interaction
1,D773K,with no effect
2,E769A,with no effect
3,E769K,with no effect
4,K781E,with no effect
5,K781A,with no effect
6,Q791K,with no effect
7,Q791E,with no effect
8,Q791A,with no effect
9,Q791L,disrupting interaction strength
10,A774K,with no effect
11,A774E,with no effect
12,G767E,with no effect
13,G767A,with no effect
14,G767K,with no effect
15,L795A,with no effect
16,L795E,with no effect
17,L795K,with no effect
18,K789E,with no effect
19,K789A,with no effect
20,E790A,with no effect
21,E790K,with no effect
22,T771A,with no effect
23,T771E,with no effect

row,Variant,effect of a mutation on the interaction
1,T771K,with no effect
2,S797K,with no effect
3,S797E,with no effect
4,S797A,with no effect
5,S785A,with no effect
6,S785E,with no effect
7,S785K,disrupting interaction strength
8,H778A,with no effect
9,H778E,with no effect
10,H778K,with no effect
11,S788A,with no effect
12,S788E,with no effect
13,S788K,with no effect
14,I776E,with no effect
15,I776A,with no effect
16,I776K,with no effect
17,L780A,with no effect
18,L780E,with no effect
19,L780K,with no effect
20,S777K,with no effect
21,S777A,with no effect
22,S777E,disrupting interaction strength
